Test results: US20070207158A1 (BOARD OF REGENTS OF THE UNIVERSITY OF OKLAHOMA, published 2007)

B1: ATF-methioninase fusion protein (other)
chain: SNELHQVPSNCDCLNGGTCVSNKYFSNIHWCNCPKKFGGQHCEIDKSKTGSGSGSRDSHNNTGFSTRAIHHGYDPLSHGGALVPPVYQTATYAFPTVEYGAACFAGEEAGHFYSRISNPTLALLEQRMASLEGGEAGLALASGMGAITSTLWTLLRPGDELIVGRTLYGCTFAFLHHGIGEFGVKIHHVDLNDAKALKAAINSKTRMIYFETPANPNMQLVDIAAVVEAVRGSDVLVVVDNTYCTPYLQRPLELGADLVVHSATKYLSGHGDITAGLVVGRKALVDRIRLEGLKDMTGAALSPHDAALLMRGIKTLALRMDRHCANALEVAQFLAGQPQVELIHYPGLPSFAQYELAQRQMRLPGGMIAFELKGGIEAGRGFMNALQLFARAVSLGDAESLAQHPASMTHSSYTPQERAHHGISEGLVRLSVGLEDVEDLLADIELALEACA
notes: also called FP
B2: L-methioninase from Pseudomonas putida (enzyme)
chain: MRDSHNNTGFSTRAIHHGYDPLSHGGALVPPVYQTATYAFPTVEYGAACFAGEEAGHFYSRISNPTLALLEQRMASLEGGEAGLALASGMGAITSTLWTLLRPGDELIVGRTLYGCTFAFLHHGIGEFGVKIHHVDLNDAKALKAAINSKTRMIYFETPANPNMQLVDIAAVVEAVRGSDVLVVVDNTYCTPYLQRPLELGADLVVHSATKYLSGHGDITAGLVVGRKALVDRIRLEGLKDMTGAALSPHDAALLMRGIKTLALRMDRHCANALEVAQFLAGQPQVELIHYPGLPSFAQYELAQRQMRLPGGMIAFELKGGIEAGRGFMNALQLFARAVSLGDAESLAQHPASMTHSSYTPQERAHHGISEGLVRLSVGLEDVEDLLADIELALEACA
notes: also called free L-methioninase

What was measured:
[1] = biological target: T1, urokinase receptor on MCF-7 human breast cancer cells (human, UniProt Q03405 23-305); assay: displacement assay on MCF-7 cells (summary of Example 1)
T1 construct: whole, on cells; also called uPA receptor; urokinase receptors
T1 sequence (Q03405 23-305): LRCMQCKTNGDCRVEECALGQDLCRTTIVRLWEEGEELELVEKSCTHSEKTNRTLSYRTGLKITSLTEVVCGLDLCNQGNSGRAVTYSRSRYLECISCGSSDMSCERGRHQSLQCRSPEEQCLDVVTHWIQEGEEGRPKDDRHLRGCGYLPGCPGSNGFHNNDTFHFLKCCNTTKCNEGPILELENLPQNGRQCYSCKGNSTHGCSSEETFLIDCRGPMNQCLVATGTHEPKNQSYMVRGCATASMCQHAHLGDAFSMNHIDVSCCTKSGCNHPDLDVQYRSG

[2] = biological target: T1, urokinase receptor on MCF-7 human …; assay: immunocytochemistry of MCF-7 cells with anti-L-methioninase antibody, 18 h treatment

Binder | binding result [1] | binding result [2]
B1 | binds | 
B2 |  | no binding (tested: 10^-6 M)
